Results: article PMC3906306 (mAbs, 2013)
Blank lines part the entries; values can stand above or below the molecule they belong to.

Tests used:
[1] = target: EGFR extracellular domain-Cλ fusion protein (Homo sapiens) (UniProt P00533); assay: SPR
[2] = target: EGFR extracellular domain-Cλ fusion protein (Homo sapiens, UniProt P00533); assay: SPR

Kd [1]: 1.9 nM
Molecule: hu225 VH:G33D (antibody)

Kd [1]: 3 nM
Molecule: hu225 VL:A25V (antibody)

Kd [2]: 1.8 nM
B1: hu225 VL:G30Y (antibody, V domains shown)
VH: EVQLVESGGGLVQPGGSLRLSCAASGFSLTNYGVHWVRQAPGKGLEWLGVIWSGGNTDYNTPFTSRLTINKDNSKNTVYLQMNSLRAEDTAVYYCARALTYYDYEFAYWGQGTLVTVSS
VL: DILLTQSPGTLSLSPGERATLSCRASQSIYTNIHWYQQKPGQAPRLLIKYASESISGIPDRFSGSGSGTDFTLTISRLEPEDFAVYYCQQNNNWPTTFGQGTKLEIK

Further lines, the molecule ahead of its results:

Molecule: hu225 VH:V50L (antibody)
Kd [1]: 3.1 nM

Molecule: hu225 VH:T97D (antibody)
Kd [1]: 1.6 nM

Molecule: hu225 VH:Y32R (antibody)
Kd [1]: 6.8 nM

Molecule: hu225 VH:T57G (antibody)
Kd [1]: 3.9 nM

Molecule: hu225 VH:F100cY (antibody)
Kd [1]: 4 nM
